Test results published in patent US20240301056A1 (APITBIO, published 2024).

Assays:
[1] = target: Human L1CAM (purified protein) (human) (UniProt P32004); assay: BLI (Octet RED384), antibody captured on AHC sensor, human L1CAM in solution; upper end told of the variants as a group, tied to Ab4H5 by the KD values of the same paragraph (0.2 nM against 8 pM)
[2] = target: Human L1CAM (purified protein) (human) (UniProt P32004); assay: competitive ELISA; antibody pre-incubated with soluble human L1CAM, free antibody detected on coated human L1CAM
[3] = target: T1, Mouse L1CAM on B16F1 cells (mouse, UniProt P11627 20-1260); assay: flow cytometry on B16F1 cells, antibody 10 ug/ml, FITC anti-human IgG Fc secondary
T1 construct: whole, on cells; also called mouse L1CAM-positive cells
T1 sequence (P11627 20-1260): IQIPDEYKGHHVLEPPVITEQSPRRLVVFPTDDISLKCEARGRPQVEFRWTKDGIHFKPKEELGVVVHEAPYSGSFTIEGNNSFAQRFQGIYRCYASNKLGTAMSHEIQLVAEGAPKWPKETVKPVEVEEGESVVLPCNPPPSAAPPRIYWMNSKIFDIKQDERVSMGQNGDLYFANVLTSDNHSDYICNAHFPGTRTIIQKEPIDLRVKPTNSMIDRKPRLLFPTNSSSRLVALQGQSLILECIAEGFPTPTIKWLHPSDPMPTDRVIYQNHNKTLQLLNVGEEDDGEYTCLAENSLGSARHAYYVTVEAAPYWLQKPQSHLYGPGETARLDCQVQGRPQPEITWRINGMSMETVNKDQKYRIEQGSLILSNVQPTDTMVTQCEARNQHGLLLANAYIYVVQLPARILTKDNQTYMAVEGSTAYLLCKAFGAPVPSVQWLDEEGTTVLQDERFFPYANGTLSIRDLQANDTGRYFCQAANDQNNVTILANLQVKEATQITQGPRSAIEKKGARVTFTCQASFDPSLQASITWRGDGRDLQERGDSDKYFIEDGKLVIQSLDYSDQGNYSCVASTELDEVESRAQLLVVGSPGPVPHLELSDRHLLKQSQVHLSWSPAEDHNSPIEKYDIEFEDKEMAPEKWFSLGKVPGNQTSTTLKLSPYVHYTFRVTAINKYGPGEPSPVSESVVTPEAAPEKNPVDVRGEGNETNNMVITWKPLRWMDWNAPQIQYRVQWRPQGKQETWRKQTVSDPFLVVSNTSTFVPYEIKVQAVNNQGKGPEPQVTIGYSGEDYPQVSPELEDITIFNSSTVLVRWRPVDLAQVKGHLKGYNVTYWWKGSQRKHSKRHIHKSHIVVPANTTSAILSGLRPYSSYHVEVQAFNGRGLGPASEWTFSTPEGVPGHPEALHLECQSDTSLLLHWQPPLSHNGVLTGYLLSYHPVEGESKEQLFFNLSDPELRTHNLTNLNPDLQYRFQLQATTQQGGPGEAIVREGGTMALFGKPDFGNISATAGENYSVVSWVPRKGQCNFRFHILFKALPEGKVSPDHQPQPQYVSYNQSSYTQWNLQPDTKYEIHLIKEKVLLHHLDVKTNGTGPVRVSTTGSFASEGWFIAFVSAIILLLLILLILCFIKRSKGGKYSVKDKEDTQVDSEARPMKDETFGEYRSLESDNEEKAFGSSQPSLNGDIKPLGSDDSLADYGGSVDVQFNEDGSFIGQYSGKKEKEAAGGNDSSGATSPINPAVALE
Method: In order to examine whether the variant antibodies selectively bind to human and mouse L1CAM, flow cytometry was performed using various types of cells. In this regard, as a comparative antibody, the Ab417 antibody which binds to human L1 CAM and mouse L1 CAM was used.
CHO-DG44 (ATCC No. PTA-3356) cells that are known to express no human L1CAM were cultured and used as a negative control. Also, cells expressing human L1CAM, human ovarian carcinoma, SKOV3 (ATCC No. HTB-77) and human non-small cell lung carcinoma, NCI-H522 (AYCC NO. CRL-5810) were cultured. As cells expressing mouse L1CAM, a melanoma cell line, B16F1 (ATCC No. CRL-6323) was cultured. The cultured cells were harvested using a dissociation buffer or 0.05% trypsin (GIBCO) for CHO-DG44 cell, resuspended in 1% PBA solution, and placed on ice for 20 minutes. The cells were then added to round bottom polystyrene test tube (Falcon) at a density of 4×10⁵ cells per tube. The purified antibodies were diluted in PBA solution at a concentration of 10 ug/ml, and 100 μl was added to each tube and mixed well. The tubes were placed in 4° C. for 1 hour. The secondary antibody which specifically binds to the Fc region of human IgG and is covalently linked with FITC (Sigma) was added to each tube at a ratio of 1:2000. The plate was wrapped with foil to block light and allowed to react at 4° C. for 1 hour. A staining reagent PI (propidium iodide, Sigma) was added at a ratio of 1:200 to evaluate cell viability. After all reactions were completed, FITC and PI fluorescent signals were detected in the cells.

[4] = target: Human L1CAM (purified protein) (human) (UniProt P32004); assay: BLI, Octet RED384; antibody captured on AHC sensor, human L1CAM 50-0.78 nM as analyte
[5] = target: Human L1CAM (purified protein) (human) (UniProt P32004); assay: competitive ELISA; lower end of the range, tied to Ab612 by Table 9
[6] = target: Human L1CAM (purified protein) (human) (UniProt P32004); assay: competitive ELISA; upper end of the range, tied to Ab2C2 by Table 9

Row | fold increased affinity compared to Ab417 [1] [fold] | Affinity (K) [2] [pM] | binding result [3] | Kd [4] [nM] | koff [4] [s⁻¹] | kon [4] [M⁻¹ s⁻¹] | fold higher binding affinity than Ab417 [5] [fold] | fold higher binding affinity than Ab417 [6] [fold] | Binder
1 | 25 | 60 | binds | 0.00822 | 2.98e-06 | 363000 |  |  | Ab4H5 antibody (antibody, human IgG1, kappa, V domains shown, Whole human IgG1, kappa; also called Anti-L1CAM ("Ab4H5"); Ab4H5 mutant) VH: EVQLVESGGGVVQPGGSLRLSCAASGFTFSRFGMHWVRQAPGKGLEWVAFISNEGSNKYYADSVKGRFTISRDNSANTLYLQMNSLRAEDTAVYYCARGRAYGSGSLFDPWGQGTLVTVSS VL: DIQLTQSPSSLSASVGDRVTITCRASRTISSYVNWYRQRPGKAPESLIYAASNLHSGVPSRFSGSGSGTDFTLTISSLQPEDFATYYCQQAGFYTPWTFGQGTKLEIKR
2 |  | 120 | binds | 0.096 | 3.94e-05 | 411000 |  |  | Ab5D12 antibody (antibody, human IgG1, kappa, V domains shown, Whole human IgG1, kappa; also called Anti-L1CAM ("Ab5D12"); Ab5D12 mutant) VH: EVQLVESGGGVVQPGGSLRLSCAASGFTFSRFGMHWVRQAPGKGLEWVAFISNEGSNKYYADSVKGRFTISRDNSANTLYLQMNSLRAEDTAVYYCARGRAYGSGSLFDPWGQGTLVTVSS VL: DIQLTQSPSSLSASVGDRVTITCRASRTISSYVNWYRQRPGKAPESLIYAASNLHSGVPSRFSGSGSGTDFTLTISSLQPEDFATYYCQQSLVWYPWTFGQGTKLEIKR
3 |  | 260 | binds | 0.105 | 3.28e-05 | 313000 | 2 to 10 |  | Ab612 antibody (antibody, human IgG1, kappa, V domains shown, Whole human IgG1, kappa, purified on protein A; also called Anti-L1CAM ("Ab612")) VH: EVQLVESGGGVVQPGGSLRLSCAASGFTFSRFGMHWVRQAPGKGLEWVAFISNEGSNKYYADSVKGRFTISRDNSANTLYLQMNSLRAEDTAVYYCARGRAYGSGSLFDPWGQGTLVTVSS VL: DIQLTQSPSSLSASVGDRVTITCRASRTISSYVNWYRQRPGKAPESLIYAASNLHSGVPSRFSGSGSGTDFTLTISSLQPEDFATYYCQQSIGRGPVTFGQGTKLEIKR
4 |  | 50 | binds | < 0.001 | < 1e-07 | 344000 |  | 2 to 10 | Ab2C2 antibody (antibody, human IgG1, kappa, V domains shown, Whole human IgG1, kappa; also called Anti-L1CAM ("Ab2C2"); Ab2C2 mutant) VH: EVQLVESGGGVVQPGGSLRLSCAASGFTFSRFGMHWVRQAPGKGLEWVAFISNEGSNKYYADSVKGRFTISRDNSANTLYLQMNSLRAEDTAVYYCARGRAYGSGSLFDPWGQGTLVTVSS VL: DIQLTQSPSSLSASVGDRVTITCRASRTISSYVNWYRQRPGKAPESLIYAASNLHSGVPSRFSGSGSGTDFTLTISSLQPEDFATYYCQQAGFYSPWTFGQGTKLEIKR
5 |  | 60 | binds | 0.0741 | 2.77e-05 | 373000 |  |  | Ab4H6 antibody (antibody, human IgG1, kappa, V domains shown, Whole human IgG1, kappa; also called Anti-L1CAM ("Ab4H6"); Ab4H6 mutant) VH: EVQLVESGGGVVQPGGSLRLSCAASGFTFSRFGMHWVRQAPGKGLEWVAFISNEGSNKYYADSVKGRFTISRDNSANTLYLQMNSLRAEDTAVYYCARGRAYGSGSLFDPWGQGTLVTVSS VL: DIQLTQSPSSLSASVGDRVTITCRASRTISSYVNWYRQRPGKAPESLIYAASNLHSGVPSRFSGSGSGTDFTLTISSLQPEDFATYYCQQSLHFYPWTFGQGTKLEIKR
